Test results: article PMC5713876, “Molecular architectures of benzoic acid-specific type III polyketide synthases” (Acta Crystallographica. Section D, Structural Biology, 2017)

Legend:
MdBIS3 (MdBIS3.1) = biological target: T1, MdBIS3 (MdBIS3.1) (Malus domestica, UniProt K9MST3); assay: X-ray crystal structure, […] Å; type: binding; details: crystals soaked with 15 mM benzoyl-CoA; CoA tunnel and active site, partial occupancy; active-site cysteine oxidized to sulfinic acid
T1 construct: cDNA in pHIS8, E. coli BL21(DE3), N-terminal His8 tag cut with thrombin; homodimer

[1] = substrate: CC(C)(COP(=O)(O)OP(=O)(O)OC[C@H]1O[C@@H](n2cnc3c(N)ncnc32)[C@H](O)[C@@H]1OP(=O)(O)O)[C@@H](O)C(=O)NCCC(=O)NCCSC(=O)CC(=O)O; assay: steady-state kinetics, LC-MS product quantification; type: biochemical, Malus domestica; details: starter substrate held constant (standard 15 µM; which starter not told), 0.1 M potassium phosphate pH 7.0, 37°C
From the text: (§1) steady-state kinetics, LC-MS product quantification on MdBIS3 (MdBIS3.1)

[2] = substrate: CC(C)(COP(=O)(O)OP(=O)(O)OC[C@H]1O[C@@H](n2cnc3c(N)ncnc32)[C@H](O)[C@@H]1OP(=O)(O)O)[C@@H](O)C(=O)NCCC(=O)NCCSC(=O)c1ccccc1; assay: as above; type: biochemical, Malus domestica; details: malonyl-CoA held constant (standard 60 µM), 0.1 M potassium phosphate pH 7.0, 37°C
From the text: as §1

[3] = substrate: CC(C)(COP(=O)(O)OP(=O)(O)OC[C@H]1O[C@@H](n2cnc3c(N)ncnc32)[C@H](O)[C@@H]1OP(=O)(O)O)[C@@H](O)C(=O)NCCC(=O)NCCSC(=O)c1ccccc1O; assay: as above; type: biochemical, Malus domestica; details: malonyl-CoA held constant (standard 60 µM), 0.1 M potassium phosphate pH 7.0, 37°C
From the text: as §1

[4] = substrate: CC(C)(COP(=O)(O)OP(=O)(O)OC[C@H]1O[C@@H](n2cnc3c(N)ncnc32)[C@H](O)[C@@H]1OP(=O)(O)O)[C@@H](O)C(=O)NCCC(=O)NCCSC(=O)CC(=O)O; assay: as above; type: biochemical, Hypericum androsaemum; details: starter substrate held constant (standard 20 µM), 0.1 M potassium phosphate pH 7.0, 37°C
From the text: (§2) steady-state kinetics, LC-MS product quantification on HaBPS

[5] = substrate: CC(C)(COP(=O)(O)OP(=O)(O)OC[C@H]1O[C@@H](n2cnc3c(N)ncnc32)[C@H](O)[C@@H]1OP(=O)(O)O)[C@@H](O)C(=O)NCCC(=O)NCCSC(=O)c1ccccc1; assay: as above; type: biochemical, Hypericum androsaemum; details: malonyl-CoA held constant (standard 80 µM), 0.1 M potassium phosphate pH 7.0, 37°C
From the text: as §2

[6] = substrate: CC(C)(COP(=O)(O)OP(=O)(O)OC[C@H]1O[C@@H](n2cnc3c(N)ncnc32)[C@H](O)[C@@H]1OP(=O)(O)O)[C@@H](O)C(=O)NCCC(=O)NCCSC(=O)CC(=O)O; assay: as above; type: biochemical, Malus domestica; details: starter substrate held constant (standard 15 µM; which starter not told), 0.1 M potassium phosphate pH 7.0, 37°C; remark: listed apart in the source
From the text: (§3) steady-state kinetics, LC-MS product quantification on MdBIS1 (MdBIS1.1)

[7] = substrate: CC(C)(COP(=O)(O)OP(=O)(O)OC[C@H]1O[C@@H](n2cnc3c(N)ncnc32)[C@H](O)[C@@H]1OP(=O)(O)O)[C@@H](O)C(=O)NCCC(=O)NCCSC(=O)c1ccccc1; assay: as above; type: biochemical, Malus domestica; details: malonyl-CoA held constant (standard 60 µM), 0.1 M potassium phosphate pH 7.0, 37°C; remark: listed apart in the source
From the text: as §3

[8] = substrate: CC(C)(COP(=O)(O)OP(=O)(O)OC[C@H]1O[C@@H](n2cnc3c(N)ncnc32)[C@H](O)[C@@H]1OP(=O)(O)O)[C@@H](O)C(=O)NCCC(=O)NCCSC(=O)c1ccccc1O; assay: as above; type: biochemical, Malus domestica; details: malonyl-CoA held constant (standard 60 µM), 0.1 M potassium phosphate pH 7.0, 37°C; remark: listed apart in the source
From the text: as §3

[9] = substrate: CC(C)(COP(=O)(O)OP(=O)(O)OC[C@H]1O[C@@H](n2cnc3c(N)ncnc32)[C@H](O)[C@@H]1OP(=O)(O)O)[C@@H](O)C(=O)NCCC(=O)NCCSC(=O)/C=C/c1ccc(O)cc1; assay: as above; type: biochemical, Malus domestica; details: malonyl-CoA held constant (standard 100 µM), 0.1 M potassium phosphate pH 7.0, 37°C
From the text: (§4) steady-state kinetics, LC-MS product quantification on MdCHS2

[10] = substrate: CC(C)(COP(=O)(O)OP(=O)(O)OC[C@H]1O[C@@H](n2cnc3c(N)ncnc32)[C@H](O)[C@@H]1OP(=O)(O)O)[C@@H](O)C(=O)NCCC(=O)NCCSC(=O)CC(=O)O; assay: as above; type: biochemical, Malus domestica; details: coumaroyl-CoA held constant (standard 60 µM), 0.1 M potassium phosphate pH 7.0, 37°C
From the text: as §4

## CC(C)(COP(=O)(O)OP(=O)(O)OC[C@H]1O[C@@H](n2cnc3c(N)ncnc32)[C@H](O)[C@@H]1OP(=O)(O)O)[C@@H](O)C(=O)NCCC(=O)NCCSC(=O)c1ccccc1 [Benzoyl-CoA]
MdBIS3 (MdBIS3.1)
  X-ray crystal structure, 1.20 Å: co-crystallization of MdBIS3 with benzoyl-CoA, resulting in intact benzoyl-CoA molecules with partial occupancies

B1: MdBIS3 (MdBIS3.1) (Malus domestica) (protein)
chain: MAPLVKNEPQHAKILAIGTANPPNVYHQKDYPDFLFRVTKNEHRTDLREKFDRICEKSRTKKRYLHLTEEMLKANPNIYTYGAPSLDVRQDICNIEVPKLGQEAALKAIKEWGQPISRITHLIFCTASCVDMPGCDFQLIKLLGLDPSVTRTMIYEAGCYAGATVLRMAKDFAENNKGARVLVVCAEITTVFFHGLTDTHLDILVGQALFADGASAVIVGANPEPEIERPLFEIVACRQTILPNSEHGVVANIREMGFNYYLSGDVPKFVGGNVVDFMTKTFEKVDGKKKDWNSLFFSVHPGGPAIVDQVEEKLGLKEGKLRATRHVLSEYGNMGAPTVHFILDEMRNKSIEEGKTTTGEGLEWGVVIGIGPGLTVETAVLRSESIRC
notes: cDNA in pHIS8, E. coli BL21(DE3), N-terminal His8 tag cut with thrombin; homodimer
[1]
  Km: 4.1 ± 1.9 µM
[2]
  Km: 0.5 ± 0.1 µM
  kcat: 0.135 s⁻¹
  kcat/Km: 270000 M⁻¹ s⁻¹
[3]
  Km: 1.1 ± 0.4 µM
  kcat: 0.1 ± 0.00167 s⁻¹
  kcat/Km: 90000 M⁻¹ s⁻¹

B2: HaBPS (Hypericum androsaemum) (protein)
chain: MAPAMEYSTQNGQGEGKKRASVLAIGTTNPEHFILQEDYPDFYFRNTNSEHMTELKEKFKRICVKSHIRKRHFYLTEEILKENQGIATYGAGSLDARQRILETEVPKLGQEAALKAIAEWGQPISKITHVVFATTSGFMMPGADYVITRLLGLNRTVRRVMLYNQGCFAGGTALRVAKDLAENNEGARVLVVCAENTAMTFHAPNESHLDVIVGQAMFSDGAAALIIGACPDVASGERAVFNILSASQTIVPGSDGAITAHFYEMGMSYFLKEDVIPLFRDNIAAVMEEAFSPLGVSDWNSLFYSIHPGGRGIIDGVAGNLGIKDENLVATRHVLGEYGNMGSACVMFILDELRKSSKVNGKPTTGDGKEFGCLIGLGPGLTVEAVVLQSVPILQ
notes: codon-optimized synthetic gene in pHIS8, E. coli BL21(DE3), N-terminal His8 tag cut with thrombin; homodimer
[4]
  Km: 2.8 ± 0.7 µM
[5]
  Km: 1.3 ± 0.5 µM
  kcat: 0.0183 s⁻¹
  kcat/Km: 14000 M⁻¹ s⁻¹

B3: MdBIS1 (MdBIS1.1) (Malus domestica) (protein)
chain: MAPLVKNHGEHQHAKILAIGTANPPNVYYQKDYPDFLFRVTKNEHRTDLREKFDRICEKSRTRKRYLHLTEEILKANPSIYTYGAPSLDVRQDMLNPEVPKLGQQAALKAIKEWGQPISKITHLIFCTASCVDMPGADFQLVKLLGLNPSVTRTMIYEAGCYAGATVLRLAKDFAENNEGARVLVVCAEITTVFFHGLTDTHLDILVGQALFADGASAVIVGANPEPKIERPLFEIVACRQTIIPNSEHGVVANIREMGFTYYLSGEVPKFVGGNVVDFLTKTFEKVDGKNKDWNSLFFSVHPGGPAIVDQVEEQLGLKEGKLRATRHVLSEYGNMGAPSVHFILDDMRKKSIEEGKSTTGEGLEWGVVIGIGPGLTVETAVLRSESITC
notes: cDNA in pHIS8, E. coli BL21(DE3), N-terminal His8 tag cut with thrombin
[6]
  Km: 6.8 ± 1.7 µM
[7]
  Km: 0.8 ± 0.2 µM
  kcat: 0.2833 ± 0.00167 s⁻¹
  kcat/Km: 350000 M⁻¹ s⁻¹
[8]
  Km: 1.6 ± 0.4 µM
  kcat: 0.2083 ± 0.00167 s⁻¹
  kcat/Km: 130000 M⁻¹ s⁻¹

B4: MdCHS2 (Malus domestica) (protein)
chain: MVTVEEVRKAQRAEGPATVLAIGTATPSNCVDQATYPDYYFRITNSEHKTELKEKFQRMCDKSMIKKRYMYLTEEILKENPTVCEYMAPSLDARQDMVVVEVPRLGKEAATKAIKEWGQPKSKITHLVFCTTSGVDMPGADYQLTKLLGLRPYVKRLMMYQQGCFAGGTVLRLAKDLAENNKGARVLVVCSEITAVTFRGPSDTHLDSLVGQALFGDGAAAVIIGADPLPEVEKPLFELVSAAQTILPDSDGAIDGHLREVGLTFHLLKDVPGLISKNIEKSLNEAFKPIGISDWNSLFWIAHPGGPAILDQVESKLALKPEKLEATRQVLSNYGNMSSACVLFILDEVRRKSTEKGLRTTGEGLEWGVLFGFGPGLTVETVVLHSVAA
notes: as for B1
[9]
  Km: 17.9 ± 6.1 µM
  kcat: 0.02 ± 0.00167 s⁻¹
  kcat/Km: 1120 M⁻¹ s⁻¹
[10]
  Km: 12.8 ± 2.7 µM
